This note sets out measurements from patent US20240279357A1 (THERINI BIO, published 2024).

Test [1] concerns the target T1, P2 peptide comprising SEQ ID NO: 31 (human fibrin γ377-395) (human).
T1 construct: Bought (CPC Scientific 920712); also called human P2 peptide
T1 peptide: YSMKKTTMKIIPFNRLTIG
Briefly: ELISA on coated P2 peptide. The method, then: (§1) The humanized antibodies affinity for fibrinogen, fibrin and P2 peptide were assessed by Enzyme-linked immunosorbent assays (ELISA)s (FIGS. 7-16). ELISAs for fibrinogen binding were performed using plasminogen-depleted human Fibrinogen (EMD/Calbiochem). […] IgG1-depleted Fibrinogen (FGN) in 20 mM HEPES/Saline buffer was added to each well of half of a 96-well Nunc Maxisorp™ ELISA plate. The ELISAs for fibrin binding were prepared by adding 50 mL of 20 mM HEPES/Saline buffer containing 14 mM CaCl₂, and 2 units thrombin to each well of the second half of the Nunc Maxisorp™ ELISA plate. 50 mL of 20 mg fibrinogen in 20 mM HEPES/Saline buffer were then added to a total volume of 100 mL. Plates were placed in a 37° C. incubator for 1 hour to allow fibrinogen to clot into fibrin and subsequently placed overnight into a plate dryer at 37° C. overnight. The ELISAs for P2 peptide were prepared by addition of […] of 30 mM P2 peptide in 20 mM HEPES/Saline buffer to each well of a 96-well Nunc Maxisorp™ ELISA plate. Plates were transferred to the plate dryer and dried overnight at 37° C. All ELISAs were preformed using Nunc MaxiSorp 96-well ELISA plates. Blocking was performed using 100 mL 5% BSA in DPBS are incubated at RT for 1 hour. Plates were washed 5× in DPBS containing 0.05% Tween-20 (EL406 was used for the addition of wash buffer only). 50 mL of primary antibodies was diluted in 0.5% BSA in DPBS, and the primary antibodies were added to the plates and incubated for 2 hours at 37° C. Plates were washed 5× in DPBS/Tween. 100 mL secondary antibodies were diluted in 0.5% BSA in DPBS. The secondary antibodies were then added to the plates and incubated for 1 hour at RT. Afterwards, plates were washed 5× in DPBS/Tween. 100 mL of TMB/E substrate solution was added, and the reaction was stopped after 5 minutes with 1N HCl.
(In general: An ELISA detects its analyte on a solid surface through an enzyme-linked reagent.)

In test [2] the target is T2, human Fibrin (human fibrinogen clotted on the plate with thrombin and CaCl2) (human, UniProt P02671 36-629; P02675 45-491; P02679 27-437).
T2 construct: Made in the ELISA wells from the human fibrinogen by thrombin and CaCl2, 1 hour at 37 C, then dried
T2 sequence (looked up) 1: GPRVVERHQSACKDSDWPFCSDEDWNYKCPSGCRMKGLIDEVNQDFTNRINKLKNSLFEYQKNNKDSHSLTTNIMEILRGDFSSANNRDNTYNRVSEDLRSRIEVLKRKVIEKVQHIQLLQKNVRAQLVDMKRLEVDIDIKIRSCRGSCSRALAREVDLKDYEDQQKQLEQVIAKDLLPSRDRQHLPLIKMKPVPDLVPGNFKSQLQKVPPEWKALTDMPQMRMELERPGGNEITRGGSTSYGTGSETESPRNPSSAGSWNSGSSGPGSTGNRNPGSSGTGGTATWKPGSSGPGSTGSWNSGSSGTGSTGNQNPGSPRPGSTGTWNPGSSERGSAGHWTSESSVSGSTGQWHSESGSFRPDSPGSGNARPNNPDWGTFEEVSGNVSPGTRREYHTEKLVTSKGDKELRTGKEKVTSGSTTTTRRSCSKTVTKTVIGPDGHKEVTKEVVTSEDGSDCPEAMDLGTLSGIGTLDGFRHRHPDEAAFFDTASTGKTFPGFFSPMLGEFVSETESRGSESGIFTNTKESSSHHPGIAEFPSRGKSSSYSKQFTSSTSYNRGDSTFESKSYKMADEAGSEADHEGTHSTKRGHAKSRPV
T2 sequence (looked up) 2: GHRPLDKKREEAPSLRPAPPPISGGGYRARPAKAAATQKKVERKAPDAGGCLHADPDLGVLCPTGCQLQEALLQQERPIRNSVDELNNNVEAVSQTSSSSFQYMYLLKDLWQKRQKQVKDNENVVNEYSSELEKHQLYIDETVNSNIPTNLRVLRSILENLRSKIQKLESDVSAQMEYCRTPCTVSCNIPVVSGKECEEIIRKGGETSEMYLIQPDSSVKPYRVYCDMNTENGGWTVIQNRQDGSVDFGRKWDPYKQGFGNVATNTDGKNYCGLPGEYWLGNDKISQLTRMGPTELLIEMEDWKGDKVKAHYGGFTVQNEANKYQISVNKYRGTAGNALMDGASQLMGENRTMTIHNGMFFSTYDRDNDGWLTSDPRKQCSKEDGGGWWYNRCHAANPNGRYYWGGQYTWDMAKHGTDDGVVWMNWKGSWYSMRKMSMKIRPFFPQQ
T2 sequence (looked up) 3: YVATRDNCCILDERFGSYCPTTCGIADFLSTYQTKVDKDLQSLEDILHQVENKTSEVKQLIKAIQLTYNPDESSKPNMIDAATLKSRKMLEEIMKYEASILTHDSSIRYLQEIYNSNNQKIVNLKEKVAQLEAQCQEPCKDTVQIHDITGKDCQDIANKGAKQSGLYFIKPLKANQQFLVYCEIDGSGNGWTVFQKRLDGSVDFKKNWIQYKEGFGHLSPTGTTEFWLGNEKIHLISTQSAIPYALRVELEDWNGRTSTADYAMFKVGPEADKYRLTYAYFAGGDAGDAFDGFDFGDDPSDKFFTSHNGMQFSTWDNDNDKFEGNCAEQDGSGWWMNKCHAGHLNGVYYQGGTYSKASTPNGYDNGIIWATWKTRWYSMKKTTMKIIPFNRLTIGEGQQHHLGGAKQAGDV
Briefly: ELISA on human fibrin formed on the plate. The method, then: as §1

B1: humanized VH5/Vκ2 antibody (antibody, IgG1, V domains shown)
VH: QVQLVQSGAEVKKPGSSVKVSCKASGYTFTSYWIHWVRQAPGQGLEWIGLIDPSDSYTNYNQKFRGRVTITRDTSTSTAYMELSSLRSEDTAVYYCASSDPTGCWGQGTTVTVSS
VL: DIVMTQAAFSNPVTPGTPASISCRSSKSLLHSSGITYLSWYLQKPGQSPQLLIYQMSNLASGVPDRFSSSGSGTDFTLKISRVEAEDVGVYYCAQNLELPLTFGQGTKLEIK
notes: IgG1; also called VH5/VK2; VH5Vk2
For the molecule B1, the EC50 (in general, the concentration giving half of the maximal effect) in test [1] is ~78.1 nM; in test [2], ~525 nM.

B2: humanized VH4/Vκ2 antibody (antibody, IgG1, V domains shown)
VH: QVQLVQSGAEVKKPGSSVKVSCKASGYTFTSYWIHWVRQAPGQGLEWIGLIDPSDSYTNYNQKFRGRVTITVDTSTSTAYMELSSLRSEDTAVYYCASSDPTGCWGQGTTVTVSS
VL: DIVMTQAAFSNPVTPGTPASISCRSSKSLLHSSGITYLSWYLQKPGQSPQLLIYQMSNLASGVPDRFSSSGSGTDFTLKISRVEAEDVGVYYCAQNLELPLTFGQGTKLEIK
notes: IgG1; also called VH4/VK2; VH4Vk2
In the case of B2, the EC50 in test [1] is ~85.1 nM; in test [2], ~762 nM.

B3: humanized VH4/Vκ1 antibody (antibody, IgG1, V domains shown)
VH: QVQLVQSGAEVKKPGSSVKVSCKASGYTFTSYWIHWVRQAPGQGLEWIGLIDPSDSYTNYNQKFRGRVTITVDTSTSTAYMELSSLRSEDTAVYYCASSDPTGCWGQGTTVTVSS
VL: DIVMTQAAFSNPITPGTPASISCRSSKSLLHSSGITYLSWYLQKPGQSPQLLIYQMSNLASGVPDRFSSSGSGTDFTLRISRVEAEDVGVYYCAQNLELPLTFGQGTKLEIK
notes: Expressed as IgG1; also called VH4/VK1; VH4Vk1
Take B3: the EC50 in test [1] is ~81.3 nM; in test [2], ~219 nM.

B4: humanized VH6/Vκ2 antibody (antibody, IgG1, V domains shown)
VH: QVQLVQSGAEVKKPGSSVKVSCKASGYTFTSYWIHWVRQAPGQGLEWIGLIDPSDSYTNYNQKFQGRVTITRDTSTSTAYMELSSLRSEDTAVYYCASSDPTGCWGQGTTVTVSS
VL: DIVMTQAAFSNPVTPGTPASISCRSSKSLLHSSGITYLSWYLQKPGQSPQLLIYQMSNLASGVPDRFSSSGSGTDFTLKISRVEAEDVGVYYCAQNLELPLTFGQGTKLEIK
notes: Expressed as IgG1; also called VH6/VK2; VH6Vk2
For the molecule B4, the EC50 in test [1] is ~110 nM; in test [2], ~488 nM.
